In US7901879B2, “Lactoferrin in the treatment of malignant neoplasms and other hyperproliferative diseases” (Agennix Incorporated, priority 2002, dated 2011):

Tested on: IL-18
Test: IL-18 levels in small intestine and serum after oral rhLF or bLF (cytokine ELISA)
Format: in vivo, mice
Description: Recombinant human lactoferrin and bovine lactoferrin were orally administered to mice, and the production of IL-18 in the small intestine was measured.
Mice were treated for three days daily with 65 mg/kg/day of rhLF, 300 mg/kg/day of rhLF or 300 mg/kg/day of bLF. For a control, mice were only administered the pharmaceutical carrier. Twenty-four hours following administration of the LF or control for 3 days, animals were weighed and blood and serum were collected. Serum was used for cytokine ELISA assays.
Also, at these time points, animals were sacrificed and the small intestinal tissue was removed for further analysis. Small intestinal epithelium was homogenized using a lysis buffer consisting of PBS, 1% Nonidet P-40, 0.5% sodium deoxycholate, and 0.1% sodium dodecyl sulphate containing 10 μg/ml PhenylMetheylsulfonyl fluoride. Homogenate was centrifuged at 15,000 rpm for 10 minutes and the supernatant stored at −80 C. till it was tested for IL-18 levels.

[1] = oral 300 mg/kg/day for three days, 24 h after last dose
[2] = oral, rhLF at both doses, bLF 300 mg/kg/day

B1: bovine lactoferrin (protein, UniProt P24627 20-708, looked up)
Lactotransferrin: APRKNVRWCTISQPEWFKCRRWQWRMKKLGAPSITCVRRAFALECIRAIAEKKADAVTLDGGMVFEAGRDPYKLRPVAAEIYGTKESPQTHYYAVAVVKKGSNFQLDQLQGRKSCHTGLGRSAGWIIPMGILRPYLSWTESLEPLQGAVAKFFSASCVPCIDRQAYPNLCQLCKGEGENQCACSSREPYFGYSGAFKCLQDGAGDVAFVKETTVFENLPEKADRDQYELLCLNNSRAPVDAFKECHLAQVPSHAVVARSVDGKEDLIWKLLSKAQEKFGKNKSRSFQLFGSPPGQRDLLFKDSALGFLRIPSKVDSALYLGSRYLTTLKNLRETAEEVKARYTRVVWCAVGPEEQKKCQQWSQQSGQNVTCATASTTDDCIVLVLKGEADALNLDGGYIYTAGKCGLVPVLAENRKSSKHSSLDCVLRPTEGYLAVAVVKKANEGLTWNSLKDKKSCHTAVDRTAGWNIPMGLIVNQTGSCAFDEFFSQSCAPGADPKSRLCALCAGDDQGLDKCVPNSKEKYYGYTGAFRCLAEDVGDVAFVKNDTVWENTNGESTADWAKNLNREDFRLLCLDGTRKPVTEAQSCHLAVAPNHAVVSRSDRAAHVKQVLLHQQALFGKNGKNCPDKFCLFKSETKNLLFNDNTECLAKLGGRPTYEEYLGTEYVTAIANLKKCSTSPLLEACAFLTR
IL-18 Intestinal Extract % Increase Over Control (oral 300 mg/kg): 373%
IL-18 Serum % Increase Over Control (oral 300 mg/kg): −5%
IL-18 Intestinal Extract [1]: 4,515 pg
IL-18 Serum [1]: 134 pg
effect on amount of IL-18 in the intestinal extract [2]: lesser increase
effect on amount of IL-18 in the serum [2]: did not increase
